Laboratory results as given in IntAct's records for PubMed 12586840.

Target: ap2a_human TFAP2A (UniProt P05549)
Sequence (P05549 whole entry): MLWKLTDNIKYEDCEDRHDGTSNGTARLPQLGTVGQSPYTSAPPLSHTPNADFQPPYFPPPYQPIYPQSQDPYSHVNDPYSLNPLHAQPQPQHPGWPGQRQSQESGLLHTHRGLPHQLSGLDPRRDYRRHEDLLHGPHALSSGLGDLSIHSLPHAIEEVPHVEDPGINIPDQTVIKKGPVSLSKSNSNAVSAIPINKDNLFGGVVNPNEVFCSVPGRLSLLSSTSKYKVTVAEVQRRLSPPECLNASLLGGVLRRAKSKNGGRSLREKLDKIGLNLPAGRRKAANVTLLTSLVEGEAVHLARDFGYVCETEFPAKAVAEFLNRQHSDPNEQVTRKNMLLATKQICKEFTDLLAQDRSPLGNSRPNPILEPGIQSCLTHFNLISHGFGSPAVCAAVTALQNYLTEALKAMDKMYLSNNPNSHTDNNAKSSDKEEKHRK

Histone acetyltransferase p300 (Homo sapiens), Q09472 D1399Y
effect of a mutation on the interaction: disrupting interaction
